Where two headings read alike, the source gives them in different places. Where no end group is shown, it is not given here. [ ]: non-standard residue; d: D form. pT = C[C@@H](OP(=O)(O)O)[C@H](N)C(=O)O; pS = N[C@@H](COP(=O)(O)O)C(=O)O
What was measured:
Assay in all cases: FP
[1] = molecular target: T1, TOPBP1-BRCT0,1,2 segment, wild type (recombinant, fluorescence polarisation) ( (human and chicken TOPBP1 …))
T1 chain: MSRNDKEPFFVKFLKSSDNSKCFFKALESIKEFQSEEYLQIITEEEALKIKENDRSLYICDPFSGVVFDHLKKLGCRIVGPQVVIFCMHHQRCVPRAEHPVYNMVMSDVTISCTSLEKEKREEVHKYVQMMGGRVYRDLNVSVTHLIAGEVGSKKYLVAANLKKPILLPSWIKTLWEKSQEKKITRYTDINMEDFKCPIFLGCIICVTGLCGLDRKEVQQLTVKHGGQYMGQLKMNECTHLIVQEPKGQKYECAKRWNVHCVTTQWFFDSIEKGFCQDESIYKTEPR

TOPBP1-BRCT7,8 = molecular target: T2, TOPBP1-BRCT7,8 ( (human and chicken TOPBP1 …))
T2 chain: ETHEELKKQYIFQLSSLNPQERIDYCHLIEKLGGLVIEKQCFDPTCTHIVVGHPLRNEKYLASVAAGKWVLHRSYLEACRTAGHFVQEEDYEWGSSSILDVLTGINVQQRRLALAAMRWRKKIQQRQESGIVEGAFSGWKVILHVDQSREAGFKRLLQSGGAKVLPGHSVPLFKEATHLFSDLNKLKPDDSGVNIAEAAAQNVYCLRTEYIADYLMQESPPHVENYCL

[2] = molecular target: T3, Rad4-BRCT1,2 segment, wild type (recombinant, fluorescence polarisation) (S. pombe, UniProt P32372 1-186)
T3 chain: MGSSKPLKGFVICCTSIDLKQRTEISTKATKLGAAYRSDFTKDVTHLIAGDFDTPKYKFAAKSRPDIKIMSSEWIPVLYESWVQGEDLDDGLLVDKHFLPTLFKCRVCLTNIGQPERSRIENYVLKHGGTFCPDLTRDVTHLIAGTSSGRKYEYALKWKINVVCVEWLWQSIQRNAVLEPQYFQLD

TOPBP1-BRCT4,5 segment = molecular target: T4, TOPBP1-BRCT4,5 segment ( (human and chicken TOPBP1 …))
T4 chain: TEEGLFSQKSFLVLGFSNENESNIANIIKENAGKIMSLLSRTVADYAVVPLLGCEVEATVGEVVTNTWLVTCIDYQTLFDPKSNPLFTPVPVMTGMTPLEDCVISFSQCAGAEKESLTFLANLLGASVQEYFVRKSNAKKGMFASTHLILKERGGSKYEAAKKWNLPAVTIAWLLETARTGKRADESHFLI

S. pombe Nbs1 = molecular target: T5, S. pombe Nbs1 (S. pombe, UniProt O43070 1-613)
T5 chain: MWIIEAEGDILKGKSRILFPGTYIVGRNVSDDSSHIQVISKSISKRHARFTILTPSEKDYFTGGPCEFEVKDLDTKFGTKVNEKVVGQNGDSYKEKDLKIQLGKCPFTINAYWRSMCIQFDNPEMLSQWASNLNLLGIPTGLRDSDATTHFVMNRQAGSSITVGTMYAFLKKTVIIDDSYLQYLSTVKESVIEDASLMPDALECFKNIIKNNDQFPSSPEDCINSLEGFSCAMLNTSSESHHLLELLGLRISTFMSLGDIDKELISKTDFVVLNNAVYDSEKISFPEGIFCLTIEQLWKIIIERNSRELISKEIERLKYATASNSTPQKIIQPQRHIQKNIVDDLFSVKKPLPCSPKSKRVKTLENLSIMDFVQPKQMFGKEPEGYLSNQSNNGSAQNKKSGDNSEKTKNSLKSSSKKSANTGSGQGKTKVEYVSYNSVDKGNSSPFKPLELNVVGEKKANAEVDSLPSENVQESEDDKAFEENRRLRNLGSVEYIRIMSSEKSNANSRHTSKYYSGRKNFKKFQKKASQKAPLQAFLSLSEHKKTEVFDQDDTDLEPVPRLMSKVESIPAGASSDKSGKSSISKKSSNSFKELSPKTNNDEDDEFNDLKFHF

[3] = molecular target: T1, TOPBP1-BRCT0,1,2 segment, wild type …
[4] = molecular target: T6, TOPBP1-BRCT0,1,2 K250E (BRCT2 phosphate-binding site mutant) ( (human and chicken TOPBP1 …))
T6 chain: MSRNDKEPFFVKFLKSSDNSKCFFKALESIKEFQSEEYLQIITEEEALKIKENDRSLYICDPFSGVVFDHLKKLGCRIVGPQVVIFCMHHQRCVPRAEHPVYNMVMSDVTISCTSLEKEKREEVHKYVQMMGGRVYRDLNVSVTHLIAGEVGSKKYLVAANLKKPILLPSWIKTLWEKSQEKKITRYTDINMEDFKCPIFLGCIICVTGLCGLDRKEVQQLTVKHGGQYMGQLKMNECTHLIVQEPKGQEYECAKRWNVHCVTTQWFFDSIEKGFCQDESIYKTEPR

Q: With fluorescein-GYGLTKSVAE[pT]PVHKQIS (also: phosphothreonine at 969 (T5 or T11)) [Treslin pT969 fluorescein-labelled phosphopeptide] as the binder, how does the Kd [1] read?
A: 940 nM

Q: fluorescein-GYGDIGVVEE[pS]PEKGDEI [Treslin pS1001 fluorescein-labelled phosphopeptide] was tested. Which Kd [1] did it give?
A: 600 nM

Q: fluorescein-GYGEDESIYF[pT]PELYDPE [FANCJ pT1133 fluorescein-labelled phosphopeptide] was tested. Which Kd (TOPBP1-BRCT7,8) did it give?
A: 140 nM

Q: For fluorescein-GYGGVMTVPN[pT]PQKPNLQ (also: phosphothreonine at 113 (T7 or T11)) [Mdb1 pT113 fluorescein-labelled phosphopeptide], which Kd [2] is on record?
A: 1310 nM

Q: fluorescein-GYGDTDFVPP[pS]PEEIISA (also: phosphoserine at 304 (S11 or S17)) [BLM pS304 fluorescein-labelled phosphopeptide] was tested. Which Kd (TOPBP1-BRCT4,5 segment) did it give?
A: 3.46 µM

Q: fluorescein-GYGVEGDHS[pS]D[pT]EEEVVS [Mdb1 pS216, pT218 fluorescein-labelled phosphopeptide (SDT site)] was tested. Which Kd (S. pombe Nbs1) did it give?
A: 820 nM

Q: With fluorescein-GYGGPVLVKD[pT]PEDKYGI [RHNO1 pT202 fluorescein-labelled phosphopeptide] as the binder, how does the Kd [3] read?
A: < 200 nM

Q: And the Kd [4]?
A: < 200 nM
